According to patent US20240295562:

Columns and labels:
QP514 (DQQRLIFAYPDDD) = target: T1, QP514 (DQQRLIFAYPDDD)
T1 chain: DQQRLIFAYPDDD

RRLDEESILKQK = target: T2, RRLDEESILKQK
T2 chain: RRLDEESILKQK

WKELDEESILKQK = target: T3, WKELDEESILKQK
T3 chain: WKELDEESILKQK

KKLDEESILKQK = target: T4, KKLDEESILKQK
T4 chain: KKLDEESILKQK

IAKLDEESILKQK = target: T5, IAKLDEESILKQK
T5 chain: IAKLDEESILKQK

QP47 peptide (FAAAYPDDD) = target: T6, QP47 peptide (FAAAYPDDD)
T6 chain: FAAAYPDDD

B1: AP37 (protein)
chain: MDLKGGESMVDWKLMQEIIEAPGVSGYEHLGIRDIVVDVLKEVADEVKVDKLGNVIAHFKGSSPRIMVAAHMDKIGVMVNHIDKDGYLHIVPIGGVLPETLVAQRIRFFTEKGERYGVVGVLPPHLRRGQEDKGSKIDWDQIVVDVGASSKEEAEEMGFRVGTVGEFAPNFTRLNEHRFATPYLDDRICLYAMIEAARQLGDHEADIYIVGSVQEEVGLRGARVASYAINPEVGIAMDVTFAKQPHDKGKIVPELGKGPVMDVGPNINPKLRAFADEVAKKYEIPLQVEPSPRPTGTDANMQINREGVATAVLSIPIRYMHSQVELADARDVDNTIKLAKALLEELKPMDFTPGHHHHHHHHHH
- cleavage of arginine in protein sequencing assay, AP37 (40 µM) alone (QP514 (DQQRLIFAYPDDD)): AP37 shows better efficiency cleaving arginine than PfuTET when alone
- Percent N-Terminal Residue Cut (HPLC assay), AP37 after conditioning, 1 µM (RRLDEESILKQK): 70%
- Percent N-Terminal Residue Cut (HPLC assay), AP37 after conditioning, 10 µM (RRLDEESILKQK): 100%
- Percent N-Terminal Residue Cut (HPLC assay), AP37 before conditioning, 1 µM (RRLDEESILKQK): 8%
- Percent N-Terminal Residue Cut (HPLC assay), AP37 before conditioning, 10 µM (RRLDEESILKQK): 26%
- Percent N-Terminal Residue Cut (HPLC assay), AP37 after conditioning, 1 µM (WKELDEESILKQK): 97%
- Percent N-Terminal Residue Cut (HPLC assay), AP37 after conditioning, 10 µM (WKELDEESILKQK): 99%
- Percent N-Terminal Residue Cut (HPLC assay), AP37 before conditioning, 1 µM (WKELDEESILKQK): 18%
- Percent N-Terminal Residue Cut (HPLC assay), AP37 before conditioning, 10 µM (WKELDEESILKQK): 55%
- Percent N-Terminal Residue Cut (HPLC assay), AP37 after conditioning, 1 µM (KKLDEESILKQK): 61%
- Percent N-Terminal Residue Cut (HPLC assay), AP37 after conditioning, 10 µM (KKLDEESILKQK): 100%
- Percent N-Terminal Residue Cut (HPLC assay), AP37 before conditioning, 1 µM (KKLDEESILKQK): 11%
- Percent N-Terminal Residue Cut (HPLC assay), AP37 before conditioning, 10 µM (KKLDEESILKQK): 71%
- Percent N-Terminal Residue Cut (HPLC assay), AP37 after conditioning, 1 µM (IAKLDEESILKQK): 74%
- Percent N-Terminal Residue Cut (HPLC assay), AP37 after conditioning, 10 µM (IAKLDEESILKQK): 100%
- Percent N-Terminal Residue Cut (HPLC assay), AP37 before conditioning, 1 µM (IAKLDEESILKQK): 13%
- Percent N-Terminal Residue Cut (HPLC assay), AP37 before conditioning, 10 µM (IAKLDEESILKQK): 57%

B2: AP30 (protein)
chain: MEVRNMVDYELLKKVVEAPGVSGYEFLGIRDVVIEEIKDYVDEVKVDKLGNVIAHKKGEGPKVMIAAHMDQIGLMVTHIEKNGFLRVAPIGGVDPKTLIAQRFKVWIDKGKFIYGVGASVPPHIQKPEDRKKAPDWDQIFIDIGAESKEEAEDMGVKIGTVITWDGRLERLGKHRFVSIAFDDRIAVYTILEVAKQLKDAKADVYFVATVQEEVGLRGARTSAFGIEPDYGFAIDVTIAADIPGTPEHKQVTHLGKGTAIKIMDRSVICHPTIVRWLEELAKKHEIPYQLEILLGGGTDAGAIHLTKAGVPTGALSVPARYIHSNTEVVDERDVDATVELMTKALENIHELKIGGSHHHHHHHHHHGGGSGGGSGGGSGLNDFFEAQKIEWHEGGGSGGGSGGGSGLNDFFEAQKIEWHE
- RSC (rapid sequential cleavage) population, protein sequencing assay with AP30 (5 µM) (QP47 peptide (FAAAYPDDD)): The RSC population with AP30 was only ~25%

B3: Pyrococcus horikoshii TET II Aminopeptidase (hTET II) (protein)
chain: MEVRNMVDYELLKKVVEAPGVSGYEFLGIRDVVIEEIKDYVDEVKVDKLGNVIAHKKGEGPKVMIAAHMDQIGLMVTHIEKNGFLRVAPIGGVDPKTLIAQRFKVWIDKGKFIYGVGASVPPHIQKPEDRKKAPDWDQIFIDIGAESKEEAEDMGVKIGTVITWDGRLERLGKHRFVSIAFDDRIAVYTILEVAKQLKDAKADVYFVATVQEEVGLRGARTSAFGIEPDYGFAIDVTIAADIPGTPEHKQVTHLGKGTAIKIMDRSVICHPTIVRWLEELAKKHEIPYQLEILLGGGTDAGAIHLTKAGVPTGALSVPARYIHSNTEVVDERDVDATVELMTKALENIHELKI
- RSC (rapid sequential cleavage) population, protein sequencing assay with hTETII (1 µM) (QP47 peptide (FAAAYPDDD)): RSC population is ~40%
